Measurements from publication PMC10390531, “Structural insights into ligand recognition and subtype selectivity of the human melanocortin-3 and melanocortin-5 receptors” (Cell Discovery, 2023).
Entries after “also recorded” stand apart in the source; their conditions may differ. Each block holds one compound with its values, some of them ahead of it.

Tests used:
[1] = target: MC5R mutant V126L (human) (UniProt P33032)
[2] = target: MC5R mutant F254^6.51A (human) (UniProt P33032)
[3] = target: MC5R mutant V126^3.36A (human) (UniProt P33032)
[4] = target: MC5R mutant D115^3.25A (human) (UniProt P33032)
MC5R mutant D115^3.25A (human), sequence (P33032 other isoform, or with tags, fused parts or gaps mutant): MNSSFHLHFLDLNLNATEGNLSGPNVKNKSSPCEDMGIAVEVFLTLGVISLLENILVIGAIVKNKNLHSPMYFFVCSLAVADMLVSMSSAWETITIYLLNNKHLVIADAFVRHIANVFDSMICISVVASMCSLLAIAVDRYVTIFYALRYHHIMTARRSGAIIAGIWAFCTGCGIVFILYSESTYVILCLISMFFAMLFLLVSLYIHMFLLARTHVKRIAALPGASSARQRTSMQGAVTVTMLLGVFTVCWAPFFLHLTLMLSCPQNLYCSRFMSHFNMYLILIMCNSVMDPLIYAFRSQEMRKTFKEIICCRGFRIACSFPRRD

[5] = target: MC3R mutant L128^3.36V (human) (UniProt P41968)
MC3R mutant L128^3.36V (human), sequence (P41968 other isoform, or with tags, fused parts or gaps mutant): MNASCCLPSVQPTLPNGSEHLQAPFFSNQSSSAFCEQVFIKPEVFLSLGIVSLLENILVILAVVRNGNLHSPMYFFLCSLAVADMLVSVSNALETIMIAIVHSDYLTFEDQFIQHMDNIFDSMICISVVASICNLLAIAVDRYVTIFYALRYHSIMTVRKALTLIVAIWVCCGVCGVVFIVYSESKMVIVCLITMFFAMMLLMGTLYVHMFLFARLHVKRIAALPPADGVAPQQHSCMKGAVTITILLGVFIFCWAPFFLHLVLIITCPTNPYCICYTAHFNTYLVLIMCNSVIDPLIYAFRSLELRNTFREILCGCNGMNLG

[6] = target: MC5R mutant F118^3.28A (human) (UniProt P33032)
MC5R mutant F118^3.28A (human), sequence (P33032 other isoform, or with tags, fused parts or gaps mutant): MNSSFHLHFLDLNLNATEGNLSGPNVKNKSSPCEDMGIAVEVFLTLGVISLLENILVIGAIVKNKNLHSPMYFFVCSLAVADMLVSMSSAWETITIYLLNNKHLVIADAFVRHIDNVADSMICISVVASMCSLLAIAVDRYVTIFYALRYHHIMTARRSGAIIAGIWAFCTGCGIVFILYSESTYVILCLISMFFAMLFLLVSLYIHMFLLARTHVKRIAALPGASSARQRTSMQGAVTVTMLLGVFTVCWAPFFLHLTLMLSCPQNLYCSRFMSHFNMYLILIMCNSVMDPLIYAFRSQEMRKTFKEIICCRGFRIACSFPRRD

[7] = target: MC3R mutant L128^3.36A (human) (UniProt P41968)
[8] = target: MC5R mutant L99^2.67A (human) (UniProt P33032)
[9] = target: wild-type MC5R on cells (human) (UniProt P33032)
wild-type MC5R on cells (human), sequence (P33032 whole entry): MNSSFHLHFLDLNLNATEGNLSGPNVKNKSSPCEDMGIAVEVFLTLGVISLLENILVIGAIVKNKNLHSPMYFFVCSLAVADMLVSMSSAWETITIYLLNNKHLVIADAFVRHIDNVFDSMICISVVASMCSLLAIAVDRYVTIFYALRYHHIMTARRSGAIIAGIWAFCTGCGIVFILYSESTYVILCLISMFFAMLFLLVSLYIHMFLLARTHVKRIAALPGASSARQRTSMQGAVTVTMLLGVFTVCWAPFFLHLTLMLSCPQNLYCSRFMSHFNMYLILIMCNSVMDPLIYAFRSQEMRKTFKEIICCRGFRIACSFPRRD

[10] = system: MC2R; test: Effect of divalent ions on cAMP accumulation, MC2R; assay type: cell-based; conditions: 1 mM Ca^2+ vs divalent ion-free background, HEK293T
Description: (§1) For assessing the effect of divalent ions on cAMP signaling, HEK293T cells were digested with 0.02% (w/v) EDTA and washed three times with calcium/magnesium-free HBSS buffer. Then the cells were resuspended and stimulated with different concentrations of ligands in Ca^2+-free stimulation buffer (the aforementioned stimulation buffer supplemented with 1 mM EGTA), or with additional 2 mM divalent ions in Ca^2+-free stimulation buffer ([divalent ions] = ~1 mM)[38]. The rest of steps were essentially the same as described above.

[11] = system: MC5R; test: Effect of divalent ions on cAMP accumulation, MC5R; assay type: cell-based, human
Description: as §1

[12] = system: MC3R; test: Effect of divalent ions on cAMP accumulation, MC3R; assay type: cell-based, human
Description: as §1

[13] = target: MC5R mutant F254^6.51A (human) (UniProt P33032); remark: listed apart in the source
[14] = target: MC5R mutant D115^3.25A (human) (UniProt P33032); remark: listed apart in the source
[15] = target: MC5R mutant D119^3.29A (human) (UniProt P33032)
MC5R mutant D119^3.29A (human), sequence (P33032 other isoform, or with tags, fused parts or gaps mutant): as the sequence (P33032 whole entry) above, with D119A counted along it

[16] = target: wild-type MC2R on cells (UniProt Q01718)
wild-type MC2R on cells, sequence (Q01718 whole entry): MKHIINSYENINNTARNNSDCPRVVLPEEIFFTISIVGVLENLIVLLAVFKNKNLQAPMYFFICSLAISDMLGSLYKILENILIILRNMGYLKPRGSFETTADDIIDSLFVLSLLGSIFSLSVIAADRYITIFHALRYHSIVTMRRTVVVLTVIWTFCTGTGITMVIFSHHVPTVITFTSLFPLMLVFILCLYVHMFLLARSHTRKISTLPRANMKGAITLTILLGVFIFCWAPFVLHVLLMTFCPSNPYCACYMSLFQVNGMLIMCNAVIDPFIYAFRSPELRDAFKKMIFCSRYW

[17] = target: MC3R mutant I265^6.58W (human) (UniProt P41968)
MC3R mutant I265^6.58W (human), sequence (P41968 other isoform, or with tags, fused parts or gaps mutant): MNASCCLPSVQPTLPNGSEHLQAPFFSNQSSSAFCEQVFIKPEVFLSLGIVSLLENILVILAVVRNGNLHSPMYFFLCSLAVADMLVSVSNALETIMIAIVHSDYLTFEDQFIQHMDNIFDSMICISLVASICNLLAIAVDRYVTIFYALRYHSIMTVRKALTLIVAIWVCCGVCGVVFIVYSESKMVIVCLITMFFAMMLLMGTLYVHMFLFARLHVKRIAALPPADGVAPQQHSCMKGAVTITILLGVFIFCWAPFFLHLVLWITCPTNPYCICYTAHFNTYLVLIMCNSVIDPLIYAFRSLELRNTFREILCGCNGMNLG

[18] = target: MC3R mutant I265^6.58M (human) (UniProt P41968)
[19] = target: MC3R mutant I265^6.58Y (human) (UniProt P41968)
MC3R mutant I265^6.58Y (human), sequence (P41968 other isoform, or with tags, fused parts or gaps mutant): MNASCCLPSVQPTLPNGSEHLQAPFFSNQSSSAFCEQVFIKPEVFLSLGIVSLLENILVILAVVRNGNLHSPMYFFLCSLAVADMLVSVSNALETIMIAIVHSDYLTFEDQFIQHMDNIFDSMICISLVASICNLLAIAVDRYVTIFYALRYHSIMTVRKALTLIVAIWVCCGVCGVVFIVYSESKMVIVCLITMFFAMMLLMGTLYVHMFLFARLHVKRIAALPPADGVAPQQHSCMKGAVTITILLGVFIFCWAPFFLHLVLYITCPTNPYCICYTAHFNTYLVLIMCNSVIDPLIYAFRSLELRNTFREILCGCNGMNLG

[20] = target: MC3R mutant F45^1.39A (human) (UniProt P41968)
MC3R mutant F45^1.39A (human), sequence (P41968 other isoform, or with tags, fused parts or gaps mutant): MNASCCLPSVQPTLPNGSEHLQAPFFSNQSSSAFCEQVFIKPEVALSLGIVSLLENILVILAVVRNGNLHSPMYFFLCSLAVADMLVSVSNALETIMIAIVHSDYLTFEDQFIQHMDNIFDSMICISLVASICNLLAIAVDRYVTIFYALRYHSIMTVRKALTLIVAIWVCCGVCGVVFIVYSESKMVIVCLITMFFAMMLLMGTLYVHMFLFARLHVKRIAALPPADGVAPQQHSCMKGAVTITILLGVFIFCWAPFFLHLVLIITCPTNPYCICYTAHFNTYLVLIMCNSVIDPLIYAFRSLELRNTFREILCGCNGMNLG

[21] = target: wild-type MC1R on cells (UniProt Q01726)
[22] = target: wild-type MC3R on cells (human) (UniProt P41968)
wild-type MC3R on cells (human), sequence (P41968 whole entry): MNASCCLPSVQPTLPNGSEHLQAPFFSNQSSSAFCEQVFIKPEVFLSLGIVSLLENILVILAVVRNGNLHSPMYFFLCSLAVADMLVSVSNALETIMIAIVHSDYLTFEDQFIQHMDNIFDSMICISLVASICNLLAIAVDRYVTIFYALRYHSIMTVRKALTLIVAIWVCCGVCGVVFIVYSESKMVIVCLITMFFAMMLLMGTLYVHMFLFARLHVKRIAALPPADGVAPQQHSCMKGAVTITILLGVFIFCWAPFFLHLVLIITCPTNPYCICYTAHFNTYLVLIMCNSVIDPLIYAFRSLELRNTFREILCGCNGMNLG

[23] = target: MC3R mutant F258^6.51A (human) (UniProt P41968)
MC3R mutant F258^6.51A (human), sequence (P41968 other isoform, or with tags, fused parts or gaps mutant): as the sequence (P41968 whole entry) above, with F258A counted along it

[24] = target: MC3R mutant D121^3.29A (human) (UniProt P41968)
MC3R mutant D121^3.29A (human), sequence (P41968 other isoform, or with tags, fused parts or gaps mutant): as the sequence (P41968 whole entry) above, with D121A counted along it

[25] = target: MC3R mutant H261^6.54A (human) (UniProt P41968)
[26] = target: MC3R mutant F45^1.39A (human) (UniProt P41968); remark: listed apart in the source
[27] = target: MC3R mutant I180^4.61A (human) (UniProt P41968)
MC3R mutant I180^4.61A (human), sequence (P41968 other isoform, or with tags, fused parts or gaps mutant): as the sequence (P41968 whole entry) above, with I180A counted along it

MC5R mutant F254^6.51A (human), sequence (P33032 other isoform, or with tags, fused parts or gaps mutant): as the sequence (P33032 whole entry) above, with F254A counted along it
MC5R mutant V126L (human), sequence (P33032 whole entry V126L): as the sequence (P33032 whole entry) above, with V126L counted along it

PG-901-induced cAMP responses, HEK293T cells; fold reduction against WT [1]: 16 fold | PG-901-induced cAMP accumulation, HEK293T cells; fold decrease of potency against WT [2]: 44 fold | PG-901-induced cAMP accumulation, HEK293T cells; fold decrease of potency against WT [3]: 8 fold | PG-901-induced cAMP accumulation, HEK293T cells; fold reduction against WT [4]: 43 fold | PG-901-induced cAMP response, HEK293T cells; EC50 [5]: 32 nM | PG-901-induced cAMP accumulation, HEK293T cells; fold reduction against WT [6]: 4 fold | PG-901-induced cAMP response, HEK293T cells; EC50 [7]: 250 nM | PG-901-induced cAMP accumulation, HEK293T cells; fold reduction against WT [8]: 10 fold | PG-901-induced cAMP accumulation, HEK293T cells; fold increase of potency with 1 mM Ca2+ against a divalent ion-free background [9]: 230 fold
Compound: PG-901 (peptide)

Compound: adrenocorticotropic hormone (SYSMEHFRWGKPVGKKRRPVKVYPNGAEDESAEAFPLEF; Corticotropin; UniProt P01189 138-176, looked up) [ACTH]
increase of potency by Ca^2+ [10]: 6309 fold

Compound: [Zn+2] [Zn^2+, zinc ion]
effect of Zn^2+ on ligand-induced cAMP response ([11]; 1 mM Zn^2+, α-MSH or PG-901): dramatic reduction of cAMP response; also recorded: inhibited the efficacy | effect of Zn^2+ on ligand-induced cAMP response ([12]; 1 mM Zn^2+, γ-MSH): dramatic reduction of cAMP response; also recorded: inhibited the efficacy

α-MSH-induced cAMP accumulation, HEK293T cells; fold decrease of potency against WT [13]: > 100 fold | α-MSH-induced cAMP accumulation, HEK293T cells; fold increase of potency with 1 mM Ca2+ against a divalent ion-free background [9]: 182 fold | α-MSH-induced cAMP accumulation, HEK293T cells; fold decrease of potency against WT [14]: 269 fold | α-MSH-induced cAMP accumulation, HEK293T cells; fold reduction against WT [15]: 447 fold
Compound: α-MSH (peptide)

ACTH-induced cAMP accumulation, HEK293T cells; fold increase of potency with 1 mM Ca2+ against a divalent ion-free background [16]: 6310 fold
Compound: adrenocorticotropic hormone (peptide)

Compound: [Mg+2] [Mg^2+, magnesium ion]
effect of Mg^2+ on Gs signaling ([11]; 1 mM Mg^2+): neglectable impact; also recorded: little impact | effect of Mg^2+ on Gs signaling ([12]; 1 mM Mg^2+): neglectable impact; also recorded: little impact

γ-MSH-induced cAMP accumulation, HEK293T cells; fold decrease of potency against WT [17]: 18 fold | γ-MSH-induced cAMP accumulation, HEK293T cells; fold decrease of potency against WT [18]: 3 fold | γ-MSH-induced cAMP accumulation, HEK293T cells; fold decrease of potency against WT [19]: 4 fold | fold reduction of binding affinity against the wild type [20]: 48 fold | γ-MSH-induced cAMP accumulation, HEK293T cells; fold increase of potency with 1 mM Ca2+ against a divalent ion-free background [21]: 294 fold | γ-MSH-induced cAMP accumulation, HEK293T cells; fold increase of potency with 1 mM Ca2+ against a divalent ion-free background [22]: 407 fold | γ-MSH-induced cAMP accumulation, HEK293T cells; fold decrease of potency against WT [23]: 30 fold | γ-MSH-induced cAMP accumulation, HEK293T cells; fold decrease of potency against WT [24]: 22 fold | γ-MSH-induced cAMP accumulation, HEK293T cells; fold decrease of potency against WT [25]: 32 fold | γ-MSH-induced cAMP accumulation, HEK293T cells; fold reduction of potency against WT [26]: 126 fold | γ-MSH-induced cAMP accumulation, HEK293T cells; fold decrease of potency against WT [27]: 22 fold
Compound: γ-MSH (peptide)
